Measured values: US20240299504A1, “COMPOSITIONS AND METHODS FOR TREATING ALZHEIMERS DISEASE” (priority 2023, published 2024)

Molecular target: T1, PTH receptor (PTH1R), parathyroid hormone type 1 receptor, on mouse astrocytes (mouse, UniProt P41593 27-591)
T1 construct: whole, on cells; Endogenous receptor of mouse cells; not isolated or expressed recombinantly
T1 sequence (looked up): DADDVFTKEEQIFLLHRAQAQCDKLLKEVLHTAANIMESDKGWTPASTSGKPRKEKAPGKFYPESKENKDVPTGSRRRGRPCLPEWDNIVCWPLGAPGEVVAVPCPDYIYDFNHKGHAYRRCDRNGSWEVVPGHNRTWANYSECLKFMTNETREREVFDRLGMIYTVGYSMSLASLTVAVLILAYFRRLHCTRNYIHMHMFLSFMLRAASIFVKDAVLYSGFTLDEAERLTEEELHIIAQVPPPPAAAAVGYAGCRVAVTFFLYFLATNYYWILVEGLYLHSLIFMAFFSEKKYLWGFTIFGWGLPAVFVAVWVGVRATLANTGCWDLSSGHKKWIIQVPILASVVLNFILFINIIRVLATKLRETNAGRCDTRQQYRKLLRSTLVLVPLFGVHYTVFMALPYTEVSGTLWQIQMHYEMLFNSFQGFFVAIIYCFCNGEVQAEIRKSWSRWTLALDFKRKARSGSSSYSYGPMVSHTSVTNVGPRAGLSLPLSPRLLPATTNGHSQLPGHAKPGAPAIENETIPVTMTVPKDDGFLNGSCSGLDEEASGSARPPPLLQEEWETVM
Test: summary sentence of the example; inferred from Biotin-PTH1-34 co-staining with astrocytes, PTH1R expression and signalling in cultured astrocytes

B1: Parathyroid hormone (human) PTH1-34 (TOCRIS Bioscience, Cat #3011/1) (peptide, UniProt P01270 32-65, looked up)
peptide: SVSEIQLMHNLGKHLNSMERVEWLRKKLQDVHNF
notes: range 1-34; Residues 1-34 count on mature PTH, not on the precursor; also called hPTH1-34; Teriparatide
B1: binds.
